Measured values as given in patent publication US20260035433A1.
Where a chain is given by its changes, count along the chain named.

B1: PD-L1 analog-Fc fusion protein of SEQ ID NO: 24 (Fc fusion)
chain: LIGYGGADYKRITLKVHAPYRNISQRISVDPVTSEHELMCQAEGYPEAEVIWTSSDHRVLSGKTTITNSNREEKLFNVTSTLNINATANEIFYCTFQRSGPEENNTAELVIPERLPVPASERTHFMILGPFGGGGQGGGSGGQGGGGGDCPKCPAPEMLGGPSVFIFPPKPKDTLLIARTPEVTCVVVDLDPEDPEVQISWFVDGKQMQTAKTQPREEQFNGTYRVVSVLPIGHQDWLKGKQFTCKVNNKALPSPIERTISKARGQAHQPSVYVLPPSREELSKNTVSLTCLIKDFFPPDIDVEWQSNGQQEPESKYRTTPPQLDEDGSYFLYSKLSVDKSRWQRGDTFICAVMHEALHNHYTQESLSHSPG
B2: PD-L1 analog-Fc fusion protein of SEQ ID NO: 21 (Fc fusion)
chain: LIGYGGADYKRITLKVHAPYRNISQRISVDPVTSGGGGQGGGSGGQGGGGGDCPKCPAPEMLGGPSVFIFPPKPKDTLLIARTPEVTCVVVDLDPEDPEVQISWFVDGKQMQTAKTQPREEQFNGTYRVVSVLPIGHQDWLKGKQFTCKVNNKALPSPIERTISKARGQAHQPSVYVLPPSREELSKNTVSLTCLIKDFFPPDIDVEWQSNGQQEPESKYRTTPPQLDEDGSYFLYSKLSVDKSRWQRGDTFICAVMHEALHNHYTQESLSHSPG
B3: PD-L1 analog-Fc fusion protein of SEQ ID NO: 26 (Fc fusion)
chain: FTITVSKDLYVVEYGGNVTMECKFPVEKQLNLFALIVYWEMEDKKIIQFVNGKEDLKVQHSSYSQRAQLLKDQLFLGKAALQITDVRLQDAGVYRCLIGYGGADYKRITLKVHAPYRNISQRISVDPVTSEHELMCQAEGYPEAEVIWTSSDHRVLSGKTTITNSNREEKLFNVTSTLNINATANEIFYCTFQRSGPEENNTAELVIPERLPVPASERTHFMILGPFQGGGSGGQDCPKCPAPEMLGGPSVFIFPPKPKDTLLIARTPEVTCVVVDLDPEDPEVQISWFVDGKQMQTAKTQPREEQFNGTYRVVSVLPIGHQDWLKGKQFTCKVNNKALPSPIERTISKARGQAHQPSVYVLPPSREELSKNTVSLTCLIKDFFPPDIDVEWQSNGQQEPESKYRTTPPQLDEDGSYFLYSKLSVDKSRWQRGDTFICAVMHEALHNHYTQESLSHSPG
B4: PD-L1 analog-Fc fusion protein of SEQ ID NO: 22 (Fc fusion)
chain: FTITVSKDLYVVEYGGNVTMECKFPVEKQLNLFALIVYWEMEDKKIIQFVNGKEDLKVQHSSYSQRAQLLKDQLFLGKAALQITDVRLQDAGVYRCLIGYGGADYKRITLKVHAPYRNISQRISVDPVTSQGGGSGGQDCPKCPAPEMLGGPSVFIFPPKPKDTLLIARTPEVTCVVVDLDPEDPEVQISWFVDGKQMQTAKTQPREEQFNGTYRVVSVLPIGHQDWLKGKQFTCKVNNKALPSPIERTISKARGQAHQPSVYVLPPSREELSKNTVSLTCLIKDFFPPDIDVEWQSNGQQEPESKYRTTPPQLDEDGSYFLYSKLSVDKSRWQRGDTFICAVMHEALHNHYTQESLSHSPG
B5: PD-L1 analog-Fc fusion protein of SEQ ID NO: 20 (Fc fusion)
chain: FTITVSKDLYVVEYGGNVTMECKFPVEKQLNLFALIVYWEMEDKKIIQFVNGKEDLKVQHSSYSQRAQLLKDQLFLGKAALQITDVRLQDAGVYRCLIGYGGADYKRITLKVHAPYRNISQRISVDPVTSGGGGQGGGSGGQGGGGGDCPKCPAPEMLGGPSVFIFPPKPKDTLLIARTPEVTCVVVDLDPEDPEVQISWFVDGKQMQTAKTQPREEQFNGTYRVVSVLPIGHQDWLKGKQFTCKVNNKALPSPIERTISKARGQAHQPSVYVLPPSREELSKNTVSLTCLIKDFFPPDIDVEWQSNGQQEPESKYRTTPPQLDEDGSYFLYSKLSVDKSRWQRGDTFICAVMHEALHNHYTQESLSHSPG
B6: PD-L1 analog-Fc fusion protein of SEQ ID NO: 27 (Fc fusion)
chain: FTITVSKDLYVVEYGGNVTMECKFPVEKQLNLFALIVYWEMEDKKIIQFVNGKEDLKVQHSSYSQRAQLLKDQLFLGKAALQITDVRLQDAGVYRCLIGYGGADYKRITLKVHAPYRNISQRISVDPVTSEHELMCQAEGYPEAEVIWTSSDHRVLSGKTTITNSNREEKLFNVTSTLNINATANEIFYCTFQRSGPEENNTAELVIPERLPVPASERTHFMILGPFGGGGQGGGSGGQGGGGGDCPKCPAPEMLGGPSVFIFPPKPKDTLLIARTPEVTCVVVDLDPEDPEVQISWFVDGKQMQTAKTQPREEQFNGTYRVVSVLPIGHQDWLKGKQFTCKVNNKALPSPIERTISKARGQAHQPSVYVLPPSREELSKNTVSLTCLIKDFFPPDIDVEWQSNGQQEPESKYRTTPPQLDEDGSYFLYSKLSVDKSRWQRGDTFICAVMHEALHNHYTQESLSHSPG
B7: PD-L1 analog-Fc fusion protein of SEQ ID NO: 32 (Fc fusion)
chain: B6 chain with R95C

These binders were tested against His-Tagged rhFc(gamma) receptor I (recombinant human Fc(gamma)R-I; Acro Biosystems, catalog# FCA-H52H1) (human) (assay: ELISA, fusion protein coated at 10 ug/mL, His-tagged rhFc(gamma)RI in solution, anti-His-HRP).
Sequence of His-Tagged rhFc(gamma) receptor I (recombinant human Fc(gamma)R-I; Acro Biosystems, catalog# FCA-H52H1) (human) (P12314 16-292): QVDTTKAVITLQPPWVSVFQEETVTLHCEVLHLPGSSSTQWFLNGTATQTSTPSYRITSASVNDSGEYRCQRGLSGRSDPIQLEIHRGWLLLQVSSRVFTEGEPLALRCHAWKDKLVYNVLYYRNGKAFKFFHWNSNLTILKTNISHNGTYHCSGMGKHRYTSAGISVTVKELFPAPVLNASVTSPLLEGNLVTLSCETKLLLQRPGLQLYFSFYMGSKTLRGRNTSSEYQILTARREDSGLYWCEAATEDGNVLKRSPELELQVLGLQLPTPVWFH

| Binder | OD450 at 222 ng/ml Fc(gamma) RI |
| --- | --- |
| B1 | 1.49 OD450 |
| B2 | 2.05 OD450 |
| B3 | 1.79 OD450 |
| B4 | 1.91 OD450 |
| B5 | 1.97 OD450 |
| B6 | 1.78 OD450 |
| B7 | 1.7 OD450 |
